Test results reported in paper PMC10397247.
Like-named read-outs stand apart in the source and are kept apart here. Values belong to the binder of their own block, whether it stands above or below them.

Legend:
[1] = target: T1, 4H2143-bA; assay: two-hybrid library CCNG1;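 note: natural log of median RNA to DNA barcode read ratio; higher means stronger binding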
T1 chain: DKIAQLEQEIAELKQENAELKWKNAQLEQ

[2] = target: T2, 4H2162-bA; assay: two-hybrid library CCNG1;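 note: natural log of median RNA to DNA barcode read ratio; higher means stronger binding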
T2 chain: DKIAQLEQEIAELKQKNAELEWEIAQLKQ

[3] = target: T3, 4H2223-bA; assay: two-hybrid library CCNG1;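 note: natural log of median RNA to DNA barcode read ratio; higher means stronger binding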
T3 chain: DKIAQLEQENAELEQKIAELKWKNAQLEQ

[4] = target: T4, 4H2233-bA; assay: two-hybrid library CCNG1;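 note: natural log of median RNA to DNA barcode read ratio; higher means stronger binding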
T4 chain: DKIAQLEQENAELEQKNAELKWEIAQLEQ

[5] = target: T5, 4H2253-bA; assay: two-hybrid library CCNG1;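 note: natural log of median RNA to DNA barcode read ratio; higher means stronger binding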
T5 chain: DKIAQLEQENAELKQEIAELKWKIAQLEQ

[6] = target: T6, 4H235-bA; assay: two-hybrid library CCNG1;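 note: natural log of median RNA to DNA barcode read ratio; higher means stronger binding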
T6 chain: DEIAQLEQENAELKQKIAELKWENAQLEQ

[7] = target: T7, 4H2438-bA; assay: two-hybrid library CCNG1
T7 chain: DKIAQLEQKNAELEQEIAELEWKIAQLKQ

[8] = target: T8, 4H2444-bA; assay: two-hybrid library CCNG1
T8 chain: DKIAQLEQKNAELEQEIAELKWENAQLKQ

[9] = target: T9, 4H2473-bA; assay: two-hybrid library CCNG1
T9 chain: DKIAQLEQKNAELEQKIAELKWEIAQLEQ

[10] = target: T10, 4H2503-bA; assay: two-hybrid library CCNG1
T10 chain: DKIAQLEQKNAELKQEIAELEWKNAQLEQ

[11] = target: T11, 4H2518-bA; assay: two-hybrid library CCNG1
T11 chain: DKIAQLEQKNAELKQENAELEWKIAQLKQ

[12] = target: T12, 4H2585-bA; assay: two-hybrid library CCNG1
T12 chain: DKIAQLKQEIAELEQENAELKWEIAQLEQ

[13] = target: T13, 4H2588-bA; assay: two-hybrid library CCNG1
T13 chain: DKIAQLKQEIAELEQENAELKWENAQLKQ

[14] = target: T14, 4H264-bA; assay: two-hybrid library CCNG1
T14 chain: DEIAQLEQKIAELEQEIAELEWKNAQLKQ

[15] = target: T15, 4H2692-bA; assay: two-hybrid library CCNG1
T15 chain: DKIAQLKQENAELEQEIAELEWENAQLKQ

[16] = target: T16, 4H2717-bA; assay: two-hybrid library CCNG1
T16 chain: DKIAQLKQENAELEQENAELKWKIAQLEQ

[17] = target: T17, 4H2760-bA; assay: two-hybrid library CCNG1
T17 chain: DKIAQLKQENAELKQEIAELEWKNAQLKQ

[18] = target: T18, 4H2839-bA; assay: two-hybrid library CCNG1
T18 chain: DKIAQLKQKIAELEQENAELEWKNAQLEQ

[19] = target: T19, 4H2859-bA; assay: two-hybrid library CCNG1
T19 chain: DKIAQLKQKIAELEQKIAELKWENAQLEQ

[20] = target: T20, 4H2915-bA; assay: two-hybrid library CCNG1
T20 chain: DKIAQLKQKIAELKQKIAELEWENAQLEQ

[21] = target: T21, 4H2931-bA; assay: two-hybrid library CCNG1
T21 chain: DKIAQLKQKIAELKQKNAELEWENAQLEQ

[22] = target: T22, 4H3041-bA; assay: two-hybrid library CCNG1
T22 chain: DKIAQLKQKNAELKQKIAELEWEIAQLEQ

[23] = target: T23, 4H3057-bA; assay: two-hybrid library CCNG1
T23 chain: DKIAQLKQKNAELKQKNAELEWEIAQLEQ

[24] = target: T24, 4H319-bA; assay: two-hybrid library CCNG1
T24 chain: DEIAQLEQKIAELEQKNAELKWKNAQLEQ

[25] = target: T25, 4H3277-bA; assay: two-hybrid library CCNG1
T25 chain: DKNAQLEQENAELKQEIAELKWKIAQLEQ

[26] = target: T26, 4H3297-bA; assay: two-hybrid library CCNG1
T26 chain: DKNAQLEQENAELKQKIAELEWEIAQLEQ

[27] = target: T27, 4H3364-bA; assay: two-hybrid library CCNG1
T27 chain: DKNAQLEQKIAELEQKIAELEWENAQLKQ

[28] = target: T28, 4H3381-bA; assay: two-hybrid library CCNG1
T28 chain: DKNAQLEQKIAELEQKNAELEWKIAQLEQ

[29] = target: T29, 4H348-bA; assay: two-hybrid library CCNG1
T29 chain: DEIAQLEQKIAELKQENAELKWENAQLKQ

[30] = target: T30, 4H349-bA; assay: two-hybrid library CCNG1
T30 chain: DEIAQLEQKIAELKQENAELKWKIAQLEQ

[31] = target: T31, 4H40-bA; assay: two-hybrid library CCNG1
T31 chain: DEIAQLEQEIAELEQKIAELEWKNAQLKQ

[32] = target: T32, 4H477-bA; assay: two-hybrid library CCNG1
T32 chain: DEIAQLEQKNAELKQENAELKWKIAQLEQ

[33] = target: T33, 4H492-bA; assay: two-hybrid library CCNG1
T33 chain: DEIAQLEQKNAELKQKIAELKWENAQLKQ

[34] = target: T34, 4H56-bA; assay: two-hybrid library CCNG1
T34 chain: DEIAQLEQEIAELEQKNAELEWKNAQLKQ

[35] = target: T35, 4H730-bA; assay: two-hybrid library CCNG1
T35 chain: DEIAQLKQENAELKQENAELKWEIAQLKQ

[36] = target: T36, 4H741-bA; assay: two-hybrid library CCNG1
T36 chain: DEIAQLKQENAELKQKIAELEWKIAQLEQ

[37] = target: T37, 4H796-bA; assay: two-hybrid library CCNG1
T37 chain: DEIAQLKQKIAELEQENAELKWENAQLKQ

[38] = target: T38, 4H883-bH; assay: two-hybrid library CCNG1
T38 chain: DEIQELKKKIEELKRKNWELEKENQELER

[39] = target: T39, 4H932-bA; assay: two-hybrid library CCNG1
T39 chain: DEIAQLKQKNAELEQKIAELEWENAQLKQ

[40] = target: T40, 4H949-bA; assay: two-hybrid library CCNG1
T40 chain: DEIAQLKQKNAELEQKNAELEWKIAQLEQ

[41] = target: T41, O3-bA; assay: two-hybrid library CCNG1
T41 chain: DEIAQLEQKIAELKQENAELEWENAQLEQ

[42] = target: T42, P1A-bH; assay: two-hybrid library CCNG1
T42 chain: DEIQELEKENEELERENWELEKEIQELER

[43] = target: T43, P4; assay: two-hybrid library CCmax
T43 chain: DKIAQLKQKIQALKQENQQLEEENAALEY

[44] = target: T44, P4SN; assay: two-hybrid library CCmax; settings: mean of both orientations
T44 chain: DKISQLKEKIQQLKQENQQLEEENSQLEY

interaction score [1]: 0.408 | interaction score [2]: -0.188 | interaction score [3]: -0.911 | interaction score [4]: -0.508 | interaction score [5]: -0.521 | interaction score [6]: -1.89 | interaction score [7]: -0.866 | interaction score [8]: -0.654 | interaction score [9]: -0.712 | interaction score [10]: -0.661 | interaction score [11]: -0.404 | interaction score [12]: 0.499 | interaction score [13]: 0.968 | interaction score [14]: -1.37 | interaction score [15]: -0.33 | interaction score [16]: 0.447 | interaction score [17]: -0.549 | interaction score [18]: 0.951 | interaction score [19]: 0.213 | interaction score [20]: 0.145 | interaction score [21]: 0.604 | interaction score [22]: 0.0855 | interaction score [23]: -0.0999 | interaction score [24]: -1.13 | interaction score [25]: -0.971 | interaction score [26]: -0.562 | interaction score [27]: -0.25 | interaction score [28]: -0.302 | interaction score [29]: -2.35 | interaction score [30]: -0.729 | interaction score [31]: -1.53 | interaction score [32]: -1.41 | interaction score [33]: -0.554 | interaction score [34]: -0.735 | interaction score [35]: -0.518 | interaction score [36]: -1.07 | interaction score [37]: -0.0583 | interaction score [38]: -0.0863 | interaction score [39]: -0.976 | interaction score [40]: -0.273 | interaction score [41]: 0.533 | interaction score [42]: -0.594
Binder: DKIAQLEQEIAELKQENAELKWKNAQLEQ [4H2143-bA]

interaction score ([43]; mean of both orientations): 1.5 | interaction score [44]: 1.9
Binder: DEIQQLEEEIAQLEWKNAALKEKNAQLKA [P3_WA]

interaction score [43]: -1.51 | interaction score [44]: -1.65
Binder: DEIQQLEEEIAQLEWKNAARKEKNAQLKA [P3_WRA]
